In article PMC9734383 (2022) one finds Kd data, which are given here for 1 molecule.

Common to all, as to experiment: BLI
Assay [1] deals with H12 HA (recombinant HA of the panel) (influenza A virus (strain  in …)).
Assay [2] has as its target H5 HA (recombinant HA of the panel) (influenza A virus (strain  in …)).
The target of assay [3] is H1-HA (A/swine/Guangdong/104/2013) (influenza A virus …).
Assay [4] deals with H1 HA (recombinant HA of the panel) (influenza A virus (strain  in …)).
Assay [5] addresses H11 HA (recombinant HA of the panel) (influenza A virus (strain  in …)).
The target in assay [6] is H9 HA (recombinant HA of the panel) (influenza A virus (strain  in …)).
The target in assay [7] is H10 HA (recombinant HA of the panel) (influenza A virus (strain  in …)).
Assay [8] addresses H15 HA (recombinant HA of the panel) (influenza A virus (strain  in …)).
In assay [9] the target is H18 HA (recombinant HA of the panel) (influenza A virus, bat H18N11 (strain …)).
In assay [10] the target is H8 HA (recombinant HA of the panel) (influenza A virus (strain  in …)).
The target of assay [11] is H14 HA (recombinant HA of the panel) (influenza A virus (strain  in …)).
Assay [12] addresses H4 HA (recombinant HA of the panel) (influenza A virus (strain  in …)).
Assay [13] deals with H3 HA (recombinant HA of the panel) (influenza A virus (strain  in …)).
Assay [14] deals with H17 HA (recombinant HA of the panel) (influenza A virus, bat H17N10 (strain …)).
Assay [15] has as its target H6 HA (recombinant HA of the panel) (influenza A virus (strain  in …)).

Several values for one entry are separate records, joined by “and”; a condition that tells them apart may be missing. Equal values may be shown once.

Broadly, the Kd is the free concentration of one partner at which half of the binding sites on the other are occupied at equilibrium, for simple one-to-one binding.

B1: PN-SIA28 Fab (Fab, V domains shown)
VH: QVQLVESGGGVVQPGRSLRLSCAASGFPFSSYGMHWVRQAPGKGLEWVAGVSYDGSYKYYADSVKGRFTISRDSSKSTLYLQMNSLRPEDTAVYYCARPSAIFGIYIILNGLDVWGQGTTVTVSS
VL: EIVLTQSPSSVSASVGDRVTITCRATQGISSWLAWYQQKPGKPPKLLIFGASSLQSGVPSRFSGSGSGTDFTLTISSLQPEDFATYFCQQAHSFPLTFGGGTKVEIK
As to B1, the Kd in assay [1] is 14900 nM; in [2] it was 6.3 nM and 6.79 nM; in assay [3] it was 0.26 nM; in [4], 0.174 nM; in assay [5], 682 nM; in [6], 34.3 nM. Also, the Kd in assay [7] stood at 1160 nM; in assay [8], 2380 nM; in assay [9], 40.2 nM; in assay [10] it was 36 nM; in assay [11], 171 nM; in [12], 201 nM. The Kd in assay [13] is 144 nM; in assay [14] it was 208 nM; in assay [15], 66.8 nM.
